Article PMC10786891, “Massively parallel profiling of RNA-targeting CRISPR-Cas13d”
Numbering of substitutions follows the chain as printed. Names may count otherwise.

T1: EsCas13d, nuclease-dead (Eubacterium siraeum, UniProt B0MS50, R295A;H300A;R849A;H854A)
T1 sequence: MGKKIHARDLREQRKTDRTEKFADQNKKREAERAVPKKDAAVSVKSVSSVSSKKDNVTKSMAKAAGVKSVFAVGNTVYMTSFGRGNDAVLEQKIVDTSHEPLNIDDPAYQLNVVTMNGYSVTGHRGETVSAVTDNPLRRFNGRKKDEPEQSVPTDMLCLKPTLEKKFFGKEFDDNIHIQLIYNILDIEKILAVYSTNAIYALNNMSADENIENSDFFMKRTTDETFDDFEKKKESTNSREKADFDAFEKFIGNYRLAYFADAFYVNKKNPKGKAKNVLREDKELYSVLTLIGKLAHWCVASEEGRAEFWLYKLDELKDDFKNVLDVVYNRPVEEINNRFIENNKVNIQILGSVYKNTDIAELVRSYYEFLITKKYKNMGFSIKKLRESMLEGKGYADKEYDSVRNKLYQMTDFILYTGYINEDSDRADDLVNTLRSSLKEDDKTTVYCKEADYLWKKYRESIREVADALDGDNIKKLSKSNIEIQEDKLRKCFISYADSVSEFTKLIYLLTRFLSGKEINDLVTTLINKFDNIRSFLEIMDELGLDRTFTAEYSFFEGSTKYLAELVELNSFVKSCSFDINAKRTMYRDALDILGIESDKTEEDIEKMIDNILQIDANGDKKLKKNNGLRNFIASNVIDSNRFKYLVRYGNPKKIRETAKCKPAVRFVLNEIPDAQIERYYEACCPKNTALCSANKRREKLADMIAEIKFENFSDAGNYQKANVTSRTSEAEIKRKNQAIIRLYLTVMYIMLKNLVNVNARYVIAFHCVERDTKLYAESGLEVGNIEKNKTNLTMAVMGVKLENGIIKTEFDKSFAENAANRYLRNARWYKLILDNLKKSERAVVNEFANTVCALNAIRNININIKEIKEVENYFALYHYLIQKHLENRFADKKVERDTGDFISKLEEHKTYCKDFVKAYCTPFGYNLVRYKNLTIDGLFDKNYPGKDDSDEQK

B1: target 1 MT 5'PFS GUU 3'PFS UAU (mixed)
RNA 1: CACCCGUGCAAAAAUGCAGGGGUCUAAAACUGAGCGGAUAACCUCUCUAUGG
RNA 2: GGGAAUGGAUCCACAUCUACGAAUUCGUUCCAUAGAGAGGUUAUCCGCUCAUAUAGAUCGGAAGAGCACACGU
B2: target 1 MT 5'PFS GAA 3'PFS UCC (mixed)
RNA 1: B1 RNA 1
RNA 2: B1 RNA 2 with U28A, U29A, A53C, U54C
B3: target 1 MT 5'PFS GUU 3'PFS ACA (mixed)
RNA 1: B1 RNA 1
RNA 2: B1 RNA 2 with U52A, A53C, U54A
B4: target 1 MT 5'PFS GUU 3'PFS ACG (mixed)
RNA 1: B1 RNA 1
RNA 2: B1 RNA 2 with U52A, A53C, U54G
B5: target 1 A1U,G12U (mixed)
RNA 1: B1 RNA 1
RNA 2: B1 RNA 2 with U29A, G40U, A51U, U52C, A53C, U54G
B6: target 1 MT 5'PFS GAA 3'PFS UCG (mixed)
RNA 1: B1 RNA 1
RNA 2: B1 RNA 2 with U28A, U29A, A53C, U54G
B7: target 1 MT 5'PFS UCA 3'PFS CCU (mixed)
RNA 1: B1 RNA 1
RNA 2: B1 RNA 2 with G27U, U28C, U29A, U52C, A53C
B8: target 1 MT 5'PFS GCG 3'PFS UCA (mixed)
RNA 1: B1 RNA 1
RNA 2: B1 RNA 2 with U28C, U29G, A53C, U54A
B9: target 1 MT 5'PFS GCG 3'PFS UCC (mixed)
RNA 1: B1 RNA 1
RNA 2: B1 RNA 2 with U28C, U29G, A53C, U54C
B10: target 1 MT 5'PFS CUA 3'PFS CAG (mixed)
RNA 1: B1 RNA 1
RNA 2: B1 RNA 2 with G27C, U29A, U52C, U54G
B11: target 1 MT 5'PFS GCG 3'PFS UCG (mixed)
RNA 1: B1 RNA 1
RNA 2: B1 RNA 2 with U28C, U29G, A53C, U54G
B12: target 1 MT 5'PFS UAG 3'PFS CCC (mixed)
RNA 1: B1 RNA 1
RNA 2: B1 RNA 2 with G27U, U28A, U29G, U52C, A53C, U54C
B13: target 1 MT 5'PFS UAG 3'PFS CCG (mixed)
RNA 1: B1 RNA 1
RNA 2: B1 RNA 2 with G27U, U28A, U29G, U52C, A53C, U54G
B14: target 1 MT 5'PFS GUG 3'PFS AUC (mixed)
RNA 1: B1 RNA 1
RNA 2: B1 RNA 2 with U29G, U52A, A53U, U54C
B15: target 1 MT 5'PFS GUG 3'PFS AUA (mixed)
RNA 1: B1 RNA 1
RNA 2: B1 RNA 2 with U29G, U52A, A53U, U54A
B16: target 1 insA 3' of 22,insU 3' of 4 (mixed)
RNA 1: B1 RNA 1
RNA 2: GGGAAUGGAUCCACAUCUACGAAUUCGUACACAUAGAGAGGUUAUCCGCUUCACCGAGAUCGGAAGAGCACACGU
B17: target 1 MT 5'PFS GUG 3'PFS AUG (mixed)
RNA 1: B1 RNA 1
RNA 2: B1 RNA 2 with U29G, U52A, A53U, U54G
B18: target 1 MT 5'PFS UAU 3'PFS UAA (mixed)
RNA 1: B1 RNA 1
RNA 2: B1 RNA 2 with G27U, U28A, U54A
B19: target 1 MT 5'PFS AAA 3'PFS UUG (mixed)
RNA 1: B1 RNA 1
RNA 2: B1 RNA 2 with G27A, U28A, U29A, A53U, U54G
B20: target 1 MT 5'PFS GUG 3'PFS AUU (mixed)
RNA 1: B1 RNA 1
RNA 2: B1 RNA 2 with U29G, U52A, A53U
B21: target 1 MT 5'PFS AAA 3'PFS UUA (mixed)
RNA 1: B1 RNA 1
RNA 2: B1 RNA 2 with G27A, U28A, U29A, A53U, U54A
B22: target 1 MT 5'PFS GCA 3'PFS UCC (mixed)
RNA 1: B1 RNA 1
RNA 2: B1 RNA 2 with U28C, U29A, A53C, U54C
B23: target 1 MT 5'PFS CUC 3'PFS ACG (mixed)
RNA 1: B1 RNA 1
RNA 2: B1 RNA 2 with G27C, U29C, U52A, A53C, U54G
B24: target 1 MT 5'PFS ACC 3'PFS CAG (mixed)
RNA 1: B1 RNA 1
RNA 2: B1 RNA 2 with G27A, U28C, U29C, U52C, U54G
B25: target 1 MT 5'PFS UGU 3'PFS CUA (mixed)
RNA 1: B1 RNA 1
RNA 2: B1 RNA 2 with G27U, U28G, U52C, A53U, U54A
B26: target 1 MT 5'PFS UGU 3'PFS CUU (mixed)
RNA 1: B1 RNA 1
RNA 2: B1 RNA 2 with G27U, U28G, U52C, A53U
B27: target 1 insC 3' of 19,insG 3' of 9 (mixed)
RNA 1: B1 RNA 1
RNA 2: B16 RNA 2 with A31C, C32A, A33U, U34C, U45G, C46U, G48C, C49G, U50C
B28: target 1 MT 5'PFS AAC 3'PFS ACU (mixed)
RNA 1: B1 RNA 1
RNA 2: B1 RNA 2 with G27A, U28A, U29C, U52A, A53C
B29: target 1 MT 5'PFS AAC 3'PFS ACA (mixed)
RNA 1: B1 RNA 1
RNA 2: B1 RNA 2 with G27A, U28A, U29C, U52A, A53C, U54A
B30: target 1 MT 5'PFS AAC 3'PFS ACC (mixed)
RNA 1: B1 RNA 1
RNA 2: B1 RNA 2 with G27A, U28A, U29C, U52A, A53C, U54C
B31: target 1 MT 5'PFS GAC 3'PFS AAA (mixed)
RNA 1: B1 RNA 1
RNA 2: B1 RNA 2 with U28A, U29C, U52A, U54A
B32: target 1 MT 5'PFS GGG 3'PFS CGC (mixed)
RNA 1: B1 RNA 1
RNA 2: B1 RNA 2 with U28G, U29G, U52C, A53G, U54C
B33: target 1 MT 5'PFS GGG 3'PFS CGG (mixed)
RNA 1: B1 RNA 1
RNA 2: B1 RNA 2 with U28G, U29G, U52C, A53G, U54G
B34: target 1 MT 5'PFS CCA 3'PFS CAU (mixed)
RNA 1: B1 RNA 1
RNA 2: B1 RNA 2 with G27C, U28C, U29A, U52C
B35: target 1 MT 5'PFS GUU 3'PFS CAC (mixed)
RNA 1: B1 RNA 1
RNA 2: B1 RNA 2 with U52C, U54C
B36: target 1 MT 5'PFS GUU 3'PFS CAA (mixed)
RNA 1: B1 RNA 1
RNA 2: B1 RNA 2 with U52C, U54A
B37: target 1 MT 5'PFS CCA 3'PFS CAC (mixed)
RNA 1: B1 RNA 1
RNA 2: B1 RNA 2 with G27C, U28C, U29A, U52C, U54C
B38: target 1 del8,del22 (mixed)
RNA 1: B1 RNA 1
RNA 2: GGGAAUGGAUCCACAUCUACGAAUUCGUACAUAGAGAGGUUACCGCUCACCGAGAUCGGAAGAGCACACGU
B39: target 1 MT 5'PFS CCA 3'PFS CAG (mixed)
RNA 1: B1 RNA 1
RNA 2: B1 RNA 2 with G27C, U28C, U29A, U52C, U54G

What follows are binders tested against T1, EsCas13d, nuclease-dead (assay: crRNA (strand 1, pre-loaded); Mg2+; 40 mM Tris-HCl pH 7.5, 150 mM NaCl, 6 mM MgCl2, 1 mM DTT, 0.1% Tween-20, 0.2 mg/ml BSA; 25 C; 10 min per concentration, then washed). Conditions: tags: His6-TwinStrep-SUMO cleaved; N-terminal SNAP kept (SNAP-Surface 488); label: 3' end held by stalled T7 RNA polymerase.
For B1, the Kd was 0.0169 ± 0.0024 µM. B2 showed a Kd of 0.027 ± 0.007 µM. With B3 the Kd was 0.0265 ± 0.0095 µM. Binder B4 has a Kd of 0.033 ± 0.0065 µM. B5 gave a Kd of 0.0141 ± 0.0018 µM. Work on B6 yielded a Kd of 0.0395 ± 0.018 µM. B7 was tested, and the Kd was 0.0275 ± 0.0095 µM. B8 was tested, and the Kd was 0.0177 ± 0.00445 µM. With B9 the Kd was 0.019 ± 0.004 µM. For B10, the Kd was roughly 0.0095 µM. B11 gave a Kd of 0.0129 ± 0.0026 µM. In the case of B12, the Kd is reported as roughly 0.056 µM. B13 was tested, and the Kd was 0.022 ± 0.00515 µM. Binder B14 has a Kd of 0.0199 ± 0.0024 µM. Work on B15 yielded a Kd of 0.0182 ± 0.00125 µM. Work on B16 yielded a Kd of 0.0113 ± 0.0007 µM. With B17 the Kd was 0.0162 ± 0.001 µM. In the case of B18, the Kd is reported as 0.034 ± 0.011 µM. For B19, the Kd was 0.0117 ± 0.00155 µM. B20 showed a Kd of 0.0158 ± 0.0014 µM. In the case of B21, the Kd is reported as 0.0101 ± 0.00145 µM. With B22 the Kd was 0.0137 ± 0.00595 µM. B23 showed a Kd of 0.072 ± 0.033 µM. B24 showed a Kd of roughly 0.036 µM. Binder B25 has a Kd of 0.049 ± 0.019 µM. B26 showed a Kd of 0.0289 ± 0.00765 µM. With B27 the Kd was 0.044 ± 0.005 µM. Binder B28 has a Kd of 0.021 ± 0.007 µM. Work on B29 yielded a Kd of 0.08 ± 0.0345 µM. With B30 the Kd was roughly 0.043 µM. For B31, the Kd was roughly 0.051 µM. With B32 the Kd was 0.064 ± 0.03 µM. B33 showed a Kd of 0.0375 ± 0.008 µM. In the case of B34, the Kd is reported as 0.00655 ± 0.0028 µM. B35 showed a Kd of 0.0225 ± 0.009 µM. Work on B36 yielded a Kd of 0.0565 ± 0.0225 µM. In the case of B37, the Kd is reported as roughly 0.0095 µM. B38 was tested, and the Kd was 0.0329 ± 0.0017 µM. Binder B39 has a Kd of 0.00425 ± 0.0013 µM.
